Target: T1, MBP-Mia1p-MutNES4 (S. pombe, UniProt Q9URY2 1-474, L461A (AVAAMDQANA; Leu/Ile residues 461, 463, 468 and 470) | I463A (AVAAMDQANA; …)
T1 construct: Cloned into the pAD2a vector (MBP upstream of the multiple cloning site), as m1; also called Mia1-MutNES4; NES mutant version of Mia1p; source: E. coli BL21 (DE3) carrying the pG-KJE8 chaperone plasmid; not shown: MBP, N-terminal, kept
T1 sequence (looked up): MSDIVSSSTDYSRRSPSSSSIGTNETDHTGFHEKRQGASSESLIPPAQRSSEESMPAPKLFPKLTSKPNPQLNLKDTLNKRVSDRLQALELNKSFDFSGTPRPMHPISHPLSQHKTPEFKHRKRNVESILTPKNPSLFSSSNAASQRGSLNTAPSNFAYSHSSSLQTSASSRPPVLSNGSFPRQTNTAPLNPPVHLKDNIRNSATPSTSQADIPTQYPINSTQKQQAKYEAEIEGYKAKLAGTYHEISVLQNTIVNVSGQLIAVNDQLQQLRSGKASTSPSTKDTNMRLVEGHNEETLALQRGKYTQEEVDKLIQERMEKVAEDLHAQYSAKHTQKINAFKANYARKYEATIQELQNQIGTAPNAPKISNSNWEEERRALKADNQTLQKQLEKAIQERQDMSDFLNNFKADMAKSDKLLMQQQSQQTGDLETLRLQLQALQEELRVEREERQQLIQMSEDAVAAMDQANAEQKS
Test: pull-down; MBP fusion held on amylose resin, incubated 1 hour at 4°C with soluble total lysate of Alp14p-13myc expressing mia1Δ S. pombe cells; Buffer A (20 mM Tris-HCl pH 7.4, 400 mM NaCl, 1 mM EDTA, 10 mM β-mercaptoethanol); washed 3 times; Alp14p-myc detected with anti-myc antibody, MBP proteins by Coomassie
Conditions: one partner purified

ratio of Alp14p-myc pulled down, against MBP-Mia1p: 0.26 ratio to MBP-Mia1p
B1: Alp14p-13myc (natural protein, S. pombe, UniProt O94534 1-809, looked up)
chain: MSQDQEEDYSKLPLESRIVHKVWKVRLSAYEECSKSFSLSADGSDNCFELWNNQSELWKSVLTDSNVAAQEAGTAAFVAYCRFSDPSHLLKAREISVLSISEKCLTSPRAGTRENALEALMLLVEADSAAPVIESIIPSLSARSPKVIASNVAAIASLVEQFGAKVIPSKMIIPHISNLFGHADKNVRKEASRLTVNIYRWTGDPLKDLLFKDLRPVQTKELESLFAELPTEPPKQTRFLKSQQPTSEPNVETQVEEQPALENEESEPEPSDDQFDLVEEVDVLPNVDPNLETLMASSKWKDRKEALDKLLPVLSQPKIKDNDFFNLVAILTKSVSKDANIMVVINAAHCIQAMAKGLRSNFSKYASTSINALLERSKEKKANVIESLSSAMDAVLATSSLDDLAELIASFAGNKNPQIKSSCFSLFSRSFSNMTSLPSKFTVDTCAKACVPGVSDTFEPVRSAAAEALGVLMKLVGERAINQYLSPLDDIRKSKIRSFYETATVKAKAPTKKSKVKPSKQEESKVVVPSNAKAVKKSVVPSSPVVPSPRKATNKSLSMDVSKGNAFENGPLLPRPTTRPVSRGLSRGTSSSLQQKVKASTPLNSGALNETVQNLKNMELDDPAPQPAKHSRVDRYEHPKVLEDNDSTISSLESLKRENEELREQLKVEHEENISMQKQLSELKGELNTLRSARKASPIGDRKPAFMRRANTDFLELSTSPSFQRSVREFEPTRPKLYSSIDVNQRSPLASAKTNGNFTFHAELPRSPFSSRANNINPDWTKAIDLAAKLKQKITEMKQTDQRHQGLIH
notes: Alp14p, TOG protein of Schizosaccharomyces pombe, partner of Mia1p/Alp7p; also called Alp14p-myc; Alp14p/TOG; source: S. pombe mia1Δ cells expressing Alp14p-13myc, total cell lysate

— PMC2705800, “Nucleocytoplasmic Shuttling of the TACC Protein Mia1p/Alp7p Is Required for Remodeling of Microtubule Arrays during the Cell Cycle” (PLoS ONE, 2009)
